The values below come from IntAct's records for PubMed 20080638.

B1: BBSome complex assembly protein BBS10 (Homo sapiens), Q8TAM1 (parent)
chain: MLSSMAAAGSVKAALQVAEVLEAIVSCCVGPEGRQVLCTKPTGEVLLSRNGGRLLEALHLEHPIARMIVDCVSSHLKKTGDGAKTFIIFLCHLLRGLHAITDREKDPLMCENIQTHGRHWKNCSRWKFISQALLTFQTQILDGIMDQYLSRHFLSIFSSAKERTLCRSSLELLLEAYFCGRVGRNNHKFISQLMCDYFFKCMTCKSGIGVFELVDDHFVELNVGVTGLPVSDSRIIAGLVLQKDFSVYRPADGDMRMVIVTETIQPLFSTSGSEFILNSEAQFQTSQFWIMEKTKAIMKHLHSQNVKLLISSVKQPDLVSYYAGVNGISVVECLSSEEVSLIRRIIGLSPFVPPQAFSQCEIPNTALVKFCKPLILRSKRYVHLGLISTCAFIPHSIVLCGPVHGLIEQHEDALHGALKMLRQLFKDLDLNYMTQTNDQNGTSSLFIYKNSGESYQAPDPGNGSIQRPYQDTVAENKDALEKTQTYLKVHSNLVIPDVELETYIPYSTPTLTPTDTFQTVETLTCLSLERNRLTDYYEPLLKNNSTAYSTRGNRIEISYENLQVTNITRKGSMLPVSCKLPNMGTSQSYLSSSMPAGCVLPVGGNFEILLHYYLLNYAKKCHQSEETMVSMIIANALLGIPKVLYKSKTGKYSFPHTYIRAVHALQTNQPLVSSQTGLESVMGKYQLLTSVLQCLTKILTIDMVITVKRHPQKVHNQDSEDEL
partner: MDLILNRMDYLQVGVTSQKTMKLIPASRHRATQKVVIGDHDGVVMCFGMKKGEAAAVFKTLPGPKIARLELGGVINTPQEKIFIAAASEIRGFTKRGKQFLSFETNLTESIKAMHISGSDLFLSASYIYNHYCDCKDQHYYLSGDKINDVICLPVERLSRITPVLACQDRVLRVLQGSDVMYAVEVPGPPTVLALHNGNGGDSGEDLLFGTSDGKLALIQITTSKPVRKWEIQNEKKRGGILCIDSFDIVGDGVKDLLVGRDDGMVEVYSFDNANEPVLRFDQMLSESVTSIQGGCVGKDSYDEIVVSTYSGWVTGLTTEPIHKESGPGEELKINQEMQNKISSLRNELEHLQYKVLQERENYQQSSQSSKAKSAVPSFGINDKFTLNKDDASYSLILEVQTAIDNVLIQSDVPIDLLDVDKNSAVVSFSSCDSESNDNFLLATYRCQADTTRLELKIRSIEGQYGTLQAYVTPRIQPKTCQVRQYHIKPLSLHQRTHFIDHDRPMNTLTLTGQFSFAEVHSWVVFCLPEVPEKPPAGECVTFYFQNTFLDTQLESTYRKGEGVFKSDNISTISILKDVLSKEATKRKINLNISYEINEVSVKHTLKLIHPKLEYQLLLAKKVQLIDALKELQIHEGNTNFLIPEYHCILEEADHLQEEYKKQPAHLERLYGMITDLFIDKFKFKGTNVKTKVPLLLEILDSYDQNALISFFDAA
B2: BBSome complex assembly protein BBS10 (Homo sapiens), Q8TAM1 (parent)
chain: B1 chain
partner: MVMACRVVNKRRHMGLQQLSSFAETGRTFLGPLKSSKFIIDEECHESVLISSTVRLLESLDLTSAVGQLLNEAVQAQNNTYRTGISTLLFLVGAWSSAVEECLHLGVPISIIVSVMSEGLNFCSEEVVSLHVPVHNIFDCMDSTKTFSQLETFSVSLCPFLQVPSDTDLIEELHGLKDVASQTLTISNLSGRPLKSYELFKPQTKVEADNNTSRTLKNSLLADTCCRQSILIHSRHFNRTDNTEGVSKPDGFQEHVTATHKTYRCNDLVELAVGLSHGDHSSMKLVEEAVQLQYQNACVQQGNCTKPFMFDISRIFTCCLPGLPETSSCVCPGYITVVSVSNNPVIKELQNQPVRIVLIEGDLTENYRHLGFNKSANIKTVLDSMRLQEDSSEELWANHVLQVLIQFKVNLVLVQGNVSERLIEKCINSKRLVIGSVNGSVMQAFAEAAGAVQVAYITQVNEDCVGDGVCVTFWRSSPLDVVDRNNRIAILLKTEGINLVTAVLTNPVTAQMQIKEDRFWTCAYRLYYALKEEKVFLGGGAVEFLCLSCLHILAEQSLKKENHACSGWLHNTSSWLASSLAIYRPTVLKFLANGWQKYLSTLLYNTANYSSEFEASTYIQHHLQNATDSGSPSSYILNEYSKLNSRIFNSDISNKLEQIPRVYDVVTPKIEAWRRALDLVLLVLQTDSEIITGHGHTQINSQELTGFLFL
B3: BBSome complex assembly protein BBS10 (Homo sapiens), Q8TAM1 (parent)
chain: B1 chain
partner: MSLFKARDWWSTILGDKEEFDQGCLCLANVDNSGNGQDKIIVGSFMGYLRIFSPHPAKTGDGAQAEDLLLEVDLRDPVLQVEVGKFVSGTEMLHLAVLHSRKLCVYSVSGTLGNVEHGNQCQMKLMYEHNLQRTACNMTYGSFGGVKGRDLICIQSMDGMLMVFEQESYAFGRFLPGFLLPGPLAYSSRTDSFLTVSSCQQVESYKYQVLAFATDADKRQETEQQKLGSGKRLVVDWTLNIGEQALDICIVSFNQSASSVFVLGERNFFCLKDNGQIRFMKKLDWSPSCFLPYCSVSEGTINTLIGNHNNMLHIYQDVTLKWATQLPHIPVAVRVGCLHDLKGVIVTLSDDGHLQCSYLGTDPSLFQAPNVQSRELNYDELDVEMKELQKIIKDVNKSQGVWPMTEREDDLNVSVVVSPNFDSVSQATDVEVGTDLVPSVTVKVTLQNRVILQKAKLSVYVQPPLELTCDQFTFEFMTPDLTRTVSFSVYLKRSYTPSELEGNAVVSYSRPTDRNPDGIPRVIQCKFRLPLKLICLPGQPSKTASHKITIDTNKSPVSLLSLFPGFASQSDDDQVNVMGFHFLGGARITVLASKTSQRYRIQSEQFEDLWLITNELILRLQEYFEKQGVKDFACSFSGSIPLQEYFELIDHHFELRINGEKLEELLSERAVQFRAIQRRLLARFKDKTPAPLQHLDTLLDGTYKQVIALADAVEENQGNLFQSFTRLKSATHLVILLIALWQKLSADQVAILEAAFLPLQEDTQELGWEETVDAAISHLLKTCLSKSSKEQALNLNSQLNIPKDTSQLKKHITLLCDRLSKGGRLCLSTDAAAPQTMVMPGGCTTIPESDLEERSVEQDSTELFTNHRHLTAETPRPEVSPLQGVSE
B4: Molecular chaperone MKKS (Homo sapiens), Q9NPJ1 (parent)
chain: MSRLEAKKPSLCKSEPLTTERVRTTLSVLKRIVTSCYGPSGRLKQLHNGFGGYVCTTSQSSALLSHLLVTHPILKILTASIQNHVSSFSDCGLFTAILCCNLIENVQRLGLTPTTVIRLNKHLLSLCISYLKSETCGCRIPVDFSSTQILLCLVRSILTSKPACMLTRKETEHVSALILRAFLLTIPENAEGHIILGKSLIVPLKGQRVIDSTVLPGILIEMSEVQLMRLLPIKKSTALKVALFCTTLSGDTSDTGEGTVVVSYGVSLENAVLDQLLNLGRQLISDHVDLVLCQKVIHPSLKQFLNMHRIIAIDRIGVTLMEPLTKMTGTQPIGSLGSICPNSYGSVKDVCTAKFGSKHFFHLIPNEATICSLLLCNRNDTAWDELKLTCQTALHVLQLTLKEPWALLGGGCTETHLAAYIRHKTHNDPESILKDDECTQTELQLIAEAFCSALESVVGSLEHDGGEILTDMKYGHLWSVQADSPCVANWPDLLSQCGCGLYNSQEELNWSFLRSTRRPFVPQSCLPHEAVGSASNLTLDCLTAKLSGLQVAVETANLILDLSYVIEDKN
partner: B2 partner
B5: Chaperonin-containing T-complex member BBS12 (Homo sapiens), Q6ZW61 (parent)
chain: B2 partner
partner: B4 chain

The variants in the first experiment derive from B1. As to conditions: with bbs7_human BBS7, Q8IWZ6.
With D81N, the “effect of a mutation on the interaction” value is “decreasing interaction”.
Still for that read-out and setting: with V240G the entry was “decreasing interaction”.
On the same count and under the same terms, with R34P the entry was “decreasing interaction”.

The variants in the next experiment derive from B2. As to conditions: with bbs12_human BBS12, Q6ZW61.
Take D81N: the “effect of a mutation on the interaction” value is reported as “decreasing interaction”.
On the same count and under the same terms, with V240G the entry was “decreasing interaction”.
On the same count and under the same terms, with S329L the entry was “decreasing interaction”; with S311A, “decreasing interaction”.

Variants of B3 are the subject of another experiment. As to conditions: with pthb1_human BBS9, Q3SYG4.
In the case of D81N, the “effect of a mutation on the interaction” value is reported as “decreasing interaction”.
The same measure, in the same setting: with R49W the entry was “decreasing interaction”.

In a further experiment the parent is B4. As to conditions: with bbs12_human BBS12, Q6ZW61.
In the case of MSRLEAKKPSLCKSEPLTTERVRTTLSVLKRIVTSCYGPSGRLKQLHNGFGGYVCTASQSSALLSHLLVTHPILKILTASIQNHVSSFSDCGLFTAILCCNLIENVQRLGLTPTTVIRLNKHLLSLCISYLKSETCGCRIPVDFSSTQILLCLVRSILTSKPACMLTRKETEHVSALILRAFLLTIPENAEGHIILGKSLIVPLKGQRVIDSTVLPGILIEMSEVQLMRLLPIKKSTALKVALFCTTLSGDTSDTGEGTVVVSYGVSLENAVLDQLLNLGRQLISDHVDLVLCQKVIHPSLKQFLNMHRIIAIDRIGVTLMEPLTKMTGTQPIGSLGSICPNSYGSVKDVCTAKFGSKHFFHLIPNEATICSLLLCNRNDTAWDELKLTCQTALHVLQLTLKEPWALLGGGCTETHLAAYIRHKTHNDPESILKDDECTQTELQLIAEAFCSALESVVGSLEHDGGEILTDMKYGHLWSVQADSPCVANWPDLLSQCGCGLYNSQEELNWSFLRSTRRPFVPQSCLPHEAVGSASNLTLDCLTAKLSGLQVAVETANLILDLSYVIEDKN [T57A], the “effect of a mutation on the interaction” value is recorded as “decreasing interaction”.

Another experiment covers variants of B5. As to conditions: with mkks_human MKKS.
In the case of G540V, the “effect of a mutation on the interaction” value is “decreasing interaction”.
Take I346T: the “effect of a mutation on the interaction” value is reported as “disrupting interaction”.
The same measure, in the same setting: with T501M the entry was “decreasing interaction”.
